4 molecules from patent publication US20130183315A1 (GLENMARK PHARMACEUTICALS S A, published 2013) can be followed below.

Numbering of substitutions follows the chain as printed.

The target of assay [1] is T1, recombinant human OX40-his protein (human, UniProt P43489 29-214).
T1 construct: Secretion driven by the native signal peptide of human TNFRSF4; also called recombinant histidine tagged human OX40 receptor extracellular domain; recombinant monovalent human OX40 receptor extracellular domain
T1 sequence: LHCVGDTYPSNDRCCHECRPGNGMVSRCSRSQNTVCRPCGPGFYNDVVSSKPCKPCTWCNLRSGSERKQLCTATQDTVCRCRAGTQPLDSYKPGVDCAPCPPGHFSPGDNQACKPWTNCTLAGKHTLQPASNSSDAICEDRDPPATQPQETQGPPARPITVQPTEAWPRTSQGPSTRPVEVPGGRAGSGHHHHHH
Put plainly: SPR (BIAcore): antibody captured on protein A chip, human OX40-his as analyte; traces aligned at 0 s, falling phase only. On the procedure:
(§1) Kinetic binding affinity constants (KD) were measured on protein-A captured antibody using recombinant histidine tagged human OX40 receptor extracellular domain as described in Example 1 as analyte. Measurements were conducted on a BIAcore 2000 (GE Healthcare—BIAcore, Uppsala, Sweden) at room temperature, and analyzed with the BiaEvaluation software (BIAcore; v4.1).
A CMS research grade sensor chip (GE Healthcare Europe GmbH, Glattbrugg, Switzerland; BR-1000-14) was activated by injecting 35 μl of a 1:1 N-hydroxysulfosuccinimide (NHS)/1-Ethyl-3-[3-dimethylaminopropyl]carbodiimide Hydrochloride (EDC) solution (v/v; 5 μl/min flow-rate; on flow paths 1 and 2). Protein-A (ref. P7837; Sigma-Aldrich Chemie GmbH, Buchs, Switzerland) was diluted to a final concentration of 50 μg/ml in acetate buffer pH 4.5 (GE, BR-1003-50; one pH unit below pI) and subsequently immobilized on the previously activated CMS sensor chip by injecting 35 μl on both flow path 1 and 2 (5 μl/min); this corresponded to approximately 1500 response units (RUs). The protein-A-CMS sensor chip was then deactivated by injecting 35 μl of ethanolamine solution (5 μl/min). Finally, two injections of 10 μl of glycine solution (GE, ref BR-1003-54; 10 mM; pH 1.5) were performed to release non-crosslinked protein-A molecules. […]

The target in assay [2] is T2, human OX40 expressed on the surface of human activated lymphocytes (human, UniProt P43489 29-277).
T2 sequence: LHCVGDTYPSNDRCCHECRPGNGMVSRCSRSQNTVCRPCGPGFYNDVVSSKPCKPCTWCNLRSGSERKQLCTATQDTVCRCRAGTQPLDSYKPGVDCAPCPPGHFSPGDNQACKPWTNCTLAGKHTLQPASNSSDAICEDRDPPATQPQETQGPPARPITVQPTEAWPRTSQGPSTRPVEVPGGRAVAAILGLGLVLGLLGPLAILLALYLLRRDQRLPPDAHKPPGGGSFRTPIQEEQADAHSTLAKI
Put plainly: cell-based or functional assay.

Assay [3] addresses T1, recombinant human OX40-his protein. Description: SPR, antibody captured on protein A, OX40-his as analyte. On the procedure:
as §1
A CMS research grade sensor chip (GE Healthcare Europe GmbH, Glattbrugg, Switzerland; BR-1000-14) was activated by injecting 35 μl of a 1:1 N-hydroxysulfosuccinimide (NHS)/1-Ethyl-3-[3-dimethylaminopropyl]carbodiimide Hydrochloride (EDC) solution (v/v; 5 μl/min flow-rate; on flow paths 1 and 2). Protein-A (ref. P7837; Sigma-Aldrich Chemie GmbH, Buchs, Switzerland) was diluted to a final concentration of 50 μg/ml in acetate buffer pH 4.5 (GE, BR-1003-50; one pH unit below pI) and subsequently immobilized on the previously activated CMS sensor chip by injecting 35 μl on both flow path 1 and 2 (5 μl/min); this corresponded to approximately 1500 response units (RUs). The protein-A-CMS sensor chip was then deactivated by injecting 35 μl of ethanolamine solution (5 μl/min). Finally, two injections of 10 μl of glycine solution (GE, ref BR-1003-54; 10 mM; pH 1.5) were performed to release non-crosslinked protein-A molecules.
(§2) 10 μl of this diluted stock were subsequently injected on the flow-path 2 of the protein-A CMS chip (30 μl/min) to reach 200-250 RUs. Following this capture step, the recombinant histidine tagged human OX40 receptor extracellular domain was injected at different concentrations (50 nM to 0.4 μM) on the flow-path 1 and 2 (flow-path 1 being used as reference) at a 30 μl/min flow rate. After each binding event, surface was regenerated with glycine buffer pH 1.5 injected for 1 min (10 μl/min)

Assay [4] has as its target T3, chimeric RRHH OX40 protein (Fc fusion) (human-rat chimera; human).
T3 chain (part 1 of 2): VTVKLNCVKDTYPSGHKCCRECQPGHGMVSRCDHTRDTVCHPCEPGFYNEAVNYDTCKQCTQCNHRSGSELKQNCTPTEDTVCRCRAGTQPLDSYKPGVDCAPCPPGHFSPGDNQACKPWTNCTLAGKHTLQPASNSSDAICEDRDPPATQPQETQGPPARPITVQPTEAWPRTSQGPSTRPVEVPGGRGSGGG
T3 chain (part 2 of 2): SAHHHHHH
Description: ELISA on coated OX40 Fc fusion (2 µg/mL), anti-human F(ab')2-HRP detection. The procedure:
(§3) Rat and human-rat OX40 proteins were formatted as Fc fusions proteins according to the method described in Example 1. For the ELISA, OX40 proteins were coated at 2 μg/mL, in PBS, overnight at 4° C. on high binding 96-well plates (Coastar). The plates were blocked with PBS 2% Bovine Serum Albumin (BSA) before incubation with the VH6/VL9 antibody or isotype control antibody. The plates were then washed and incubated with goat-anti human Ig F(ab′)2 fragment specific-HRP (Jackson ImmunoResearch Europe Ltd, Newmarket, UK). After washing, the plates were incubated with TMB substrate (Bio-Rad Laboratories AG, Reinach, Switzerland) to reveal antibody binding. The reaction was stopped by adding 2M H₂SO₄ and the optical density was read at 450 nm (OD 450 nm) on a Synergy HT2 spectrophotometer (Biotek, USA; distributor: WITTEC AG, Littau, Switzerland).
(§4) A binding ELISA was performed to test the reactivity of the VH6/VL9 antibody on human OX40 extracellular region (abbreviated HHHH with SEQ ID NO: 11), rat OX40 extracellular region (abbreviated RRRR with SEQ ID NO: 52), and on four human-rat chimeric proteins: RHRR (SEQ ID NO: 53), HRRR (SEQ ID NO: 54), HHRR (SEQ ID NO: 55), and RRHH (SEQ ID NO: 56).

The target in assay [5] is T4, rat OX40 extracellular region Fc fusion protein (rat; human, UniProt P15725 20-210).
T4 construct: also called RRRR; rat OX40 protein
The assay is described as above. The procedure: as §3, §4

Assay [6] concerns the target T1, recombinant human OX40-his protein. Put plainly: SPR, antibody captured on protein A, OX40-his as analyte, duplicates; lower of the two duplicate measurements. The procedure:
as §1, §2
Measurements were performed in duplicates with the captured chimeric 1D4 anti-human OX40 antibody immobilized onto the protein-A sensor chip and the recombinant histidine tagged human OX40 receptor extracellular domain as analyte.

The target of assay [7] is T5, recombinant human OX40-Fc protein (human, UniProt P43489 29-214).
T5 construct: also called human TNFRSF4 extracellular domain-Fc fusion protein; HHHH; not shown: Fc region of a human IgG1, EU positions 223-451 as printed
Description: blocking ELISA on coated human OX40-Fc; blocked ligand: biotinylated recombinant human OX40L, streptavidin-HRP detection. On the procedure:
In order to determine if the generated anti-OX40 antibodies can block the binding of OX40L to the OX40 receptor, a blocking ELISA was developed. Ninety-six well-microtiter plates (Costar, USA; distributor VWR AG, Nyon, Switzerland) were coated with 100 μl of recombinant human OX40-Fc (see Example 1) at 2 μg/ml in PBS. Plates were incubated overnight at 4° C. and were then blocked with PBS 2% BSA at RT for one hour. The blocking solution was removed and the hybridoma supernatants or purified antibodies were added to the plate. Five minutes later, 50 μl of biotinylated-recombinant human OX40L at 0.04 mg/ml was added to each well. Plates were incubated at RT for 60 minutes, then washed nine times with PBS 0.01% Tween-20 and HRP-streptavidin (Sigma-Aldrich Chemie GmbH, Buchs, Switzerland) was added at a dilution of 1:2000. Plates were incubated for 30 minutes at RT, washed 9 times with PBS 0.01% Tween-20 and the TMB substrate (Bio-rad Laboratories AG, Reinach, Switzerland) was added to the plates and the reaction stopped after 6 minutes by adding H₂SO₄. Absorbance was then read at 450 nm by a microplate reader (Biotek, USA; distributor: WITTEC AG, Littau, Switzerland).

B1: VH4/VL9 (antibody, human IgG1, kappa, V domains shown)
VH: QVTLKESGPALVKPTQTLTLTCSFSGFSLSTSGMGVSWIRQPPGKALEWIAHIWWDDDKYYSTSLKTRLTISKDTSKNQVVLTMTNMDPVDTATYYCARIDWDGFAYWGQGTLVTVSS
VL: EIVLTQSPATLSLSPGERATLSCRASSSVSYMHWYQQKPGQAPRPWIYATSNRATGIPARFSGSGSGTDYTLTISSLEPEDFAVYYCQQWSSNPWTFGQGTKVEIKR
notes: Humanized, IGHG1, kappa
Turning to B1, the binding result in assay [1] was “binds”.

B2: VH5/VL9 (antibody, human IgG1, kappa, V domains shown)
VH: B1 VH with S62N, S64A
VL: B1 VL
notes: Humanized, IGHG1, kappa
In the case of B2, in assay [1], the binding result is given as “binds”.

B3: VH6/VL9 antibody (antibody, human IgG1, kappa, V domains shown)
VH: B1 VH with S37G, S62N, S64A
VL: B1 VL
notes: Humanized, IGHG1, kappa; also called humanized anti-OX40 antibody VH6/VL9; VH6/VL9 IGHG1 format
B3: the “inhibition of mixed lymphocyte reaction (3H thymidine incorporation), EC50” value in assay [2] was about 0.1 µg/mL. Further, in assay [3], the Kd was 101 nM, the off-rate (koff) was 0.00356 s⁻¹ and the kon was 35400 M⁻¹ s⁻¹. Also, the binding result in assay [4] is reported as “no binding (tested: not printed)”. Also, the binding result in assay [5] is reported as “no binding (tested: not printed)”.

B4: chimeric 1D4 antibody (antibody, human IgG1, kappa, V domains shown)
VH: QVTLKESGPGILQPSQTLSLTCSFSGFSLSTSGMGVGWIRQPSGKGLEWLAHIWWDDDKYYNTALKSGLTISKDTSKNQVFLKIASVDTTDTATYYCARIDWDGFAYWGQGTLVTVSS
VL: QIVLTQSPAILSASPGEKVTMTCRASSSVSYMHWYQQKPGSSPKPWIYATSNLASGVPARFSGSGSGTSYSLTINRVEAEDAATYYCQQWSSNPWTFGGGTKLEIKR
notes: Biotinylated for the staining of cynomolgus cells; also called 1D4 chimera; 1D4 chimeric antibody
For B4, the Kd in assay [6] lay within 91 to 116 nM. In assay [3], the Kd is 91 nM, the koff amounted to 0.00308 s⁻¹ and the kon was 34000 M⁻¹ s⁻¹. Besides, the “IC50 (read off the curve)” value in assay [7] was about 0.3 µg/mL.
